Assay results taken from patent publication US8273705B2, “Conversion of apoptotic proteins” (The Burnham Institute, priority 2002, dated 2012).

Columns and labels:
[1] = test system: ZR-75-1 cells; test: GFP-TR3/ΔDBD localization and cytochrome c release in ZR-75-1 cells; format: cell-based; settings: ZR-75-1, absence of any treatment
Protocol: Subcellular localization assays—Cells were seeded onto cover-slips in 6-well plates overnight, then transiently transfected with GFP-fusion expression plasmids. After 16 hours, cells were washed with PBS and fixed in 4% paraformaldehyde. For mitochondrial staining, cells were then incubated with anti-Hsp60 goat IgG (Santa Cruz, USA), followed by anti-goat IgG conjugated with Cy3 (Sigma). For cyt c staining, cells were incubated with monoclonal anti-cyt c IgG (PharMingen), followed by anti-mouse IgG conjugated with Cy5 (Amersham). Fluorescent images were collected and analyzed using a MRC-1024 MP laser-scanning confocal microscope (Bio-Rad). Subcellular fractionation assays were performed as described (Li, et al. 2000 Science 289:1159-1164). Briefly, cells (1×10^7 cells) suspended in 0.5 ml hypotonic buffer (5 mM Tris-HCl, pH 7.4, 5 mM KCl, 1.5 mM MgCl2, 0.1 mM EGTA, pH 8.0, and 1 mM DTT) were homogenized and cell extracts were centrifuged at 500×g for 5 min. […]
To study whether the TR3 nuclear-to-mitochondrial targeting pathway also occurs in breast cancer cells, a GFP-TR3 fusion construct was transfected into MDA-MB-231 cells. […] Next, GFP-TR3/ΔDBD was transiently transfected into ZR-75-1 or MDA-MB-231 cells, stained for mitochondria (Hsp60) and cytochrome c (Cyt c), and analyzed by confocal microscopy.

[2] = test system: peripheral blood lymphocytes (PBLs); test: TR3 subcellular localization in peripheral blood lymphocytes; format: cell-based, human; settings: DsRed2-Mito
Source text: TR3 subcellular localization was studied by both confocal microscopy and subcellular fractionation approaches. For microscopy experiments, freshly isolated PBLs were transfected with GFP-TR3, then treated with phorbol ester TPA and the calcium ionophore ionomycin, which induce TR3-dependent apoptosis of T-lymphocytes.

[3] = target: T1, Bcl-2/ΔBH4 (Homo sapiens, UniProt P10415, DEL7-30); test: Co-IP assay with Bcl-2/ΔBH4; format: binding
T1 construct: expressed in transfected cells; host or cells: HEK293T
T1 sequence (P10415 with tags, fused parts or gaps DEL7-30): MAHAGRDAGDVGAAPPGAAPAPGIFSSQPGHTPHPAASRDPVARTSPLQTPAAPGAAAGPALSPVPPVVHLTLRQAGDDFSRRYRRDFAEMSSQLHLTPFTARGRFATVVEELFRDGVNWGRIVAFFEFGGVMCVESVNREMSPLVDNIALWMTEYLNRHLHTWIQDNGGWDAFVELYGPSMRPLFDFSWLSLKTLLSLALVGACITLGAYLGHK
Protocol: (§1) Therefore, TR3/ΔDBD was analyzed as to its interaction with a fragment of Bcl-2 comprising the first 80 amino acids (Bcl-2/1-80). […] The Bcl-2/1-80 fragment encompasses the N-terminal BH4 domain followed by an unstructured loop domain of approximately 50 amino acids length. To determine whether the BH4 domain or the loop region was responsible for binding to TR3/ΔDBD, TR3/ΔDBD interaction with Bcl-2 mutants lacking the BH4 domain (Bcl-2/ΔBH4) or the loop region (Bcl-2/ΔLoop) was analyzed. […] Thus, the loop region of Bcl-2 is involved in binding to TR3.

[4] = test system: 293T cells; test: Cytochrome c release in 293T cells (confocal microscopy); format: cell-based, human
Protocol: Subcellular localization assays—Cells were seeded onto cover-slips in 6-well plates overnight, then transiently transfected with GFP-fusion expression plasmids. After 16 hours, cells were washed with PBS and fixed in 4% paraformaldehyde. For mitochondrial staining, cells were then incubated with anti-Hsp60 goat IgG (Santa Cruz, USA), followed by anti-goat IgG conjugated with Cy3 (Sigma). For cyt c staining, cells were incubated with monoclonal anti-cyt c IgG (PharMingen), followed by anti-mouse IgG conjugated with Cy5 (Amersham). Fluorescent images were collected and analyzed using a MRC-1024 MP laser-scanning confocal microscope (Bio-Rad). Subcellular fractionation assays were performed as described (Li, et al. 2000 Science 289:1159-1164). Briefly, cells (1×10^7 cells) suspended in 0.5 ml hypotonic buffer (5 mM Tris-HCl, pH 7.4, 5 mM KCl, 1.5 mM MgCl2, 0.1 mM EGTA, pH 8.0, and 1 mM DTT) were homogenized and cell extracts were centrifuged at 500×g for 5 min. The resulting supernatant was centrifuged at 10,000×g for 30 min at 4° C. to obtain the HM fraction. HM fraction was resuspended in 100 μl lysis buffer (10 mM Tris, pH 7.4, 150 mM NaCl, 1% Triton X-100, 5 mM EDTA, pH 8.0) for immunoblotting analysis.
The involvement of TR3/Bcl-2 interaction in TR3-induced cytochrome c release was also studied. […] Nor did transient expression of Bcl-2 alone.

[5] = test system: Bcl-2/ΔLoop; test: Co-IP assay with Bcl-2/ΔLoop; format: binding
Protocol: as §1

[6] = target: T2, Bcl-2/1-80 (Homo sapiens, UniProt P10415); test: Co-IP assay with Bcl-2/1-80; format: binding
T2 construct: a fragment of Bcl-2 comprising the first 80 amino acids (Bcl-2/1-80); expressed in transfected cells; host or cells: HEK293T
T2 sequence (P10415 1-80): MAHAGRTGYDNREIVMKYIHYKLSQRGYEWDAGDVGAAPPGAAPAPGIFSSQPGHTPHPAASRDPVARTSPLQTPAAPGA
Protocol: as §1
Deletion of the loop region of Bcl-2 completely blocks paclitaxel-induced apoptosis (Rakesh et al. 1999 PNAS USA 96:3775-3780). To further investigate whether the loop region of Bcl-2 is responsible for its interaction with TR3/ΔDBD, TR3/ΔDBD was co-transfected with the first 80-residue fragment of Bcl-2 including the loop region and BH4 domain.

[7] = test system: Calu-6 lung cancer cells; test: DAPI apoptosis assay in Calu-6 cells; format: cell-based
Protocol: Apoptosis assays—For nuclear morphological change analysis, cells were trypsinized, washed with PBS, fixed with 3.7% paraformaldehyde, and stained with DAPI (4,6-diamidino-2-phenylindole) (50 μg/ml) to visualize the nuclei by UV-microscopy. The percentages of apoptotic cells were determined by counting 300 GFP-positive cells, scoring cells having nuclear fragmentation and/or chromatin condensation.
DAPI staining was used to study the apoptotic effect of TR3/Bcl-2 interaction. 293T cells were transfected with GFP-TR3/ΔDBD alone or together with Bcl-2. After 36 h, nuclei were stained by DAPI and nuclear fragmentation and chromatin condensation were identified. Cells were also stained with anti-Bcl-2 antibody, followed by TRITC-conjugated secondary antibody (Sigma). Bcl-2 and GFP-ΔDBD expression and nuclear morphology were visualized by fluorescence microscopy, and the two images were overlaid. […] But, when Bcl-2 was cotransfected, a significant amount of transfected cells underwent apoptosis. For example, approximately 4% of cells transfected with either TR3/ΔDBD or Bcl-2 were apoptotic, compared to 35% of cell transfected with both. […] Cotransfection of Bcl-2, however, prevented BAX-induced apoptosis in these cells (see FIG. 4). The effect of Bcl-2 on apoptotic potential of TR3/ΔDBD in lung cancer and breast cancer cells was also investigated.

[8] = target: T3, Bcl-2 (Homo sapiens, UniProt P10415); test: Bcl-2 conformation by immunoprecipitation with epitope-specific antibodies; format: binding
T3 construct: expressed in transfected cells; host or cells: HEK293T
T3 sequence (P10415 whole entry): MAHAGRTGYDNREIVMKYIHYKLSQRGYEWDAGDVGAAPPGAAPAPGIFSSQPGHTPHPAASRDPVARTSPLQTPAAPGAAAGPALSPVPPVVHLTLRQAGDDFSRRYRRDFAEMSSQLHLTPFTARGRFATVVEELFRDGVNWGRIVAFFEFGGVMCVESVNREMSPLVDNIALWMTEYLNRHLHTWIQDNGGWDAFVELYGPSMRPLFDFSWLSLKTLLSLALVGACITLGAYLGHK
Source text: Second, the effects of TR3/ΔDBD on Bcl-2 conformation were studied by immunoprecipitation assays.

B1: TR3/ΔDBD: TR3 mutant with the DNA binding domain removed; used as GFP fusion (protein)
chain: MPCIQAQYGTPAPSPGPRDHLASDPLTPEFIKPTMDLASPEAAPAAPTALPSFSTFMDGYTGEFDTFLYQLPGTVQPCSSASSSASSTSSSSATSPASASFKFEDFQVYGCYPGPLSGPVDEALSSSGSDYYGSPCSAPSPSTPSFQPPQLSPWDGSFGHFSPSQTYLVLHRLQCARGFGDWIDSILAFSRSLHSLLVDVPAFACLSALVLITDRHGLQEPRRVEELQNRIASCLKEHVAAVAGEPQPASCLSRLLGKLPELRTLCTQGLQRIFYLKLEDLVPPPPIIDKIFMDTLPF
modifications: left off: large carriers; small tags and cut ends
notes: used as GFP fusion
GFP-TR3/ΔDBD subcellular localization [1]: targeted to mitochondria | cytochrome c release [1]: caused release of cytochrome c from the mitochondria | mitochondrial colocalization [2]: colocalized extensively with DsRed2-Mito | interaction with Bcl-2/ΔBH4 (Co-IP) [3]: retained the ability to interact | cytochrome c release ([4]; absence of Bcl-2 cotransfection): did not cause any release of cytochrome c | cytochrome c release ([4]; co-expression with Bcl-2/Y108K): did not induce cyt c release | cytochrome c release ([4]; co-transfection with Bcl-2/ΔTM): did not occur | TR3/ΔDBD and Bcl-2 colocalized cells displaying diffuse cyt c staining ([4]; cotransfected with Bcl-2): Approximately 75% | cytochrome c release ([4]; cotransfection with Bcl-2): significant release of cytochrome c | interaction with Bcl-2/ΔLoop (Co-IP) [5]: did not | interaction with Bcl-2/1-80 (Co-IP) [6]: strongly interacted | apoptosis ([7]; Calu-6, absence of Bcl-2): did not show any apoptotic effect | apoptosis ([7]; Calu-6, co-expression of Bcl-2): strong induction of apoptosis | binding of Bcl-2 by antibody against BH3-binding pocket [8]: reduced binding | binding of Bcl-2 by antibody against BH3 domain [8]: enhancing binding | immunoprecipitation efficiency of antibody against whole Bcl-2 protein [8]: did not affect
